The target of test [1] is mouse TMEM106B (mouse) (UniProt Q80X71). As to the kind of experiment: FACS Neuro2a.
The target is the same in test [2]. Nature of the test: FACS, HEK293 transfectants. On the technique in general: Flow cytometry measures light scatter and fluorescence of single cells or particles in a stream.

B1: anti-TMEM106B antibody TM-4 (antibody, V domains shown)
VH: EVQVQQSGPVLVKPGASVKMSCKASGYTFTDYYMNWVKQSHGKNLEWIGVINPYNGGTSYHQKFKGKATLTVDKSSSTAYMELNSLTSEDSAVYYCARAATVVAGFDYWGQGTTLTVSS
VL: QAVVTQESALTTSPGETVTLTCRSSTGAVTTSNYANWVQEKPDHLFTGLIGGTNNRAPGVPARFSGSLIGDKAALTITGAQTEDEAIYFCVLWYSNHLVFGGGTKLTVL
Molecule B1 gave an MFI with mouse TMEM106B (mouse) [1] of 325. In addition, the fold-change over parental HEK293 with mouse TMEM106B (mouse) [2] was 1.97 fold.

For the origin of these results see US20230303681A1.
